Laboratory results reported in US20100028995A1, “Tetranectin Trimerizing Polypeptides” (Anaphore, Inc., priority 2004, published 2010).

Legend:
[1] = test system: IL-1 induction of IL-8 in U937 cells; experiment: Inhibition of IL-1 induction of IL-8 in U937 cells; format: cell-based; settings: based on several in vitro efficacy assays as well as Biacore assays
Procedure: GG-TripV-IL-1ra (Trip V-IL1Ra), GG-TripK-IL-1ra (Trip K-IL1Ra), GG-TripT-IL-1ra (Trip T-IL1Ra) and CII-H6-GrB-GG-TripT-IL-1ra (Trip Q-IL1Ra) were further analysed for their ability to inhibit IL-1 induction of IL-8 in U937 cells.
Due to buffer effects in the assay, at the highest protein concentration used (100 μg/mL) IL-8 production increases instead of further decreasing. Based on several in vitro efficacy assays as well as Biacore assays, it was determined that TripT IL1Ra was the best compound based on blocking and binding efficacy as well as production yields.
Three of the trimeric IL1Ra polypeptides described in the previous examples were chosen for pharmacokinetic analysis. The differences in the constructs were in the N-terminus of the trimerization domain: full length (FL), first nine amino acids truncated (I10) and the first 16 amino acids truncated (V17). The 10 construct represents a naturally occurring deletion variant of the trimerization domain and lacks the O-glycosylation site at Thr 4. The V17 derivative represents a deletion of the first exon encoding the trimerization domain and lacks a characterized heparin binding site. This site is also partially removed in the I10 construct.

[2] = Pharmacokinetic analysis of trimeric IL1Ra proteins in male Lewis rats after i.v. injection (plasma ELISA); format: in vivo; settings: for AUC / AUC protein/AUC KINERET ® / Half life / Half life protein/Half life KINERET ® / relative increase in AUC compared to KINERET: rat, in vivo, iv, 100 mg/kg; for half life after i.v. injection: single i.v. dose 100 mg/kg
Procedure: The pharmacokinetic profile of these three constructs polypeptides were analysed in Lewis rats after intravenous (i.v.) injections. The profiles obtained were compared to the pharmacokinetic profile of KINERET® in the same experiment. The pharmacokinetic study was conducted using four male Lewis rats per group, and the constructs that were used were FL IL-1Ra, I10 IL-1Ra, V17 IL-1Ra and KINERET®, Single i.v. doses of 100 mg/kg were given to the animals. The test compound was dissolved in vehicle (4.4 mM NaCitrate, pH 6.5, 93.8 mM NaCl, 0.33 mM EDTA, 0.7 g TWEEN®-80) and administered through the tail vein (vena sacralis media) or the hind paw vein (vena saphena).
Blood was then collected from four animals per time-point at baseline (zero hours) and 0.5, 1, 2, 4, 8, 12, 24, 48, 72 h post dosing. Blood samples of approximately 100 μl were collected from the tip of the tails in Microtainers™. Plasma was collected and transferred into polypropylene tubes. Plasma samples were then stored at <−70° C. until measurements were performed. Animals were then sacrificed by CO2 inhalation and the carcasses were discarded without pathological examination. The IL-1Ra compound levels and KINERET® levels in plasma were then determined by ELISA.
The average body weight of each rat was 250 grams. Assuming that the rat average blood volume was 16.5 mL a theoretical maximum initial concentration of the compounds of 1,500,000 ng/mL was calculated after i.v. injection. This starting level was used as starting value for the analysis. No observations of side effects or changes in animal well being were observed.
Following blood sampling at the above indicated time points, an ELISA assay was used to measure the injected protein in the blood samples. Based on these ELISA results, area under the curve (AUC) was used as a measure of drug exposure and the plasma half life were calculated using standard software.

STZ-induced diabetes = experiment: Streptozocin (STZ)-induced diabetes model; format: in vivo, C57BL/6J male mice; settings: for reduction of blood glucose levels: daily i.p. dosing at both 100 and 30 mg/kg, FIG. 12
Procedure: STZ (Sigma Aldrich) was administered once daily for five successive days at 50 mg/kg i.p. to fasted C57BL/6J male mice. The mice gradually developed higher levels of blood glucose from Day 1 to Day 4. The levels rose from […] during the STZ induction period. Five days (Day 4) after the last STZ dosing, the mice were randomly distributed into 10 treatment groups each containing 10 mice in good condition. Treatment started on this day, before onset of diabetes and continued beyond the onset.
The study period was 28 days and the mice were weighed once weekly during the treatment period. Blood glucose levels were measured every other day during the study period in order to monitor development of diabetes. A droplet of whole blood was collected by tail vein bleeding and placed on an Ascensia ELITE® blood glucose test strip and analyzed with an Ascensia ELITE® blood glucose meter (Bayer). The values were recorded, and x-fold increase in any given group compared to levels at treatment initiation was calculated. Clinical symptoms were observed daily or as appropriate in groups where adverse symptoms occurred.

[3] = test system: type II collagen arthritis; format: in vivo, Female Lewis rats
Procedure: Female Lewis rats with 4-day established type II collagen arthritis were treated subcutaneously (SC), daily (QD) on arthritis days 1-3 with Vehicle (10 mM phosphate buffer pH 7.4), or equimolar amounts of IL-1ra administering either monomeric IL-1ra (100 mg/kg KINERET®), or trimerized IL1ra (120 mg/kg Met-I10-TripT-IL1ra, or 120 mg/kg GG-V17-TripT-IL1ra). In order to have only one set of controls, all rats in the QD groups were dosed with the respective vehicle (10 mM phosphate buffer pH 7.4, or sodium citrate buffer pH 6.5 for KINERET®) at the 2nd and 3rd dosings to keep manipulations constant. Animals were terminated on arthritis day 4. Efficacy evaluation was based on ankle caliper measurements, expressed as area under the curve (AUC), terminal hind paw weights and body weights (Bendele et al 2000, Arthritis+Rheumatism 43:2648-2659). All animals survived to study termination. […] No vocalization occurred with any other injections.
Animals (8/group for arthritis, 4/group for normal), housed 4/cage, were anesthetized with Isoflurane and received subcutaneous/intradermal (SC/ID) injections with 300 μl of Freund's Incomplete Adjuvant (Difco, Detroit, Mich.) containing 2 mg/ml bovine type II collagen (Elastin Products, Owensville, Mo.) at the base of the tail and 2 sites on the back on days 0 and 6. Dosing by subcutaneous route (QD at 24 hour intervals) was initiated on arthritis day 1 and continued through day 3.
Rats were weighed on days 0-4 of arthritis, and caliper measurements of ankles were taken every day beginning on day 0 of arthritis (study day 9). After final body weight measurement, animals were euthanized, and hind paws were transected at the level of the medial and lateral malleolus and weighed (paired).

[4] = in vivo; cited from earlier work
[5] = SC QD days 1-3, 100 mg/kg KINERET, 120 mg/kg trimerized IL1ra, vs vehicle treated disease controls

| Substance | blocking and binding efficacy [1] | AUC [2] [µg·h/mL] | AUC protein/AUC KINERET ® [2] | Half life [2] [min] | Half life protein/Half life KINERET ® [2] | relative increase in AUC compared to KINERET [2] | reduction of blood glucose levels (STZ-induced diabetes) | blood glucose efficacy relative to daily dosing of 100 mg/kg KINERET (STZ-induced diabetes; twice weekly i.p. dosing of 100 mg/kg) | half life after i.v. injection [2] | Change in body weight increased toward normal [3, 5] [%] | Reduction of ankle diameter AUC [3, 5] [%] | Reduction of final paw weight [3, 5] [%] | vocalization during the injection process (subcutaneous irritation) ([3]; rat, in vivo, sc) | half life in humans [4] [min] |
| --- | --- | --- | --- | --- | --- | --- | --- | --- | --- | --- | --- | --- | --- | --- |
| FL IL1Ra: trimeric IL1Ra polypeptide with full length (FL) trimerization domain, TripT fusion to IL-1Ra (SEQ ID NO: 24) | best compound | 809.292 | 1.89 | 20 | 17 | two-fold |  |  |  |  |  |  |  |  |
| I10 IL1Ra: trimeric IL1Ra polypeptide, first nine amino acids of the trimerization domain truncated (I10), TripT fusion (SEQ ID NO: 28) |  | 1637.866 | 3.82 | 54 | 45 |  | marked reduction | equally effective |  |  |  |  |  |  |
| KINERET®: monomeric IL-1ra [reference compound] |  | 428.414 | 1 | 1.2 | 1 |  | marked reduction |  | about 1.2 minutes | 54 | 34 | 61 | vocalized during the injection process | 240 to 360 |
| V17 IL1Ra: trimeric IL1Ra polypeptide, first 16 amino acids of the trimerization domain truncated (V17), TripT fusion (SEQ ID NO: 32) |  | 2177.781 | 5.08 | 69 | 58 | five-fold |  |  | about 69 minutes |  |  |  |  |  |
